Results published in the supplement of paper PMC7125110.
± gives the standard error. For part of these data: Fewer inactive variants are shown than the library holds.

B1: glmS ribozyme (parent)
chain: AUAAAAGCGCCAGAACUACAGAAAUGUAGUUGACGAGGAGGAGGUUUAUCGAAUUUUCGGCGGAUGCCUCCAAA

What was measured:
Settings in all cases: with glucosamine-6-phosphate
glucosamine-6-phosphate [1] = variants of: B1; experiment: kcat; higher = faster cleavage; RNA array
Summary of the method: (§1)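 Barcoded glmS ribozyme variants on sequenced MiSeq chips were transcribed in situ by E. coli RNA polymerase and tracked through a hybridised Cy3 probe at 37 °C. Glucosamine-6-phosphate (40 μM to 10 mM) in HEPES/KCl/Mg(OAc)2 buffer was flowed in, and tiles were imaged over ~14 h. Signals were normalised to baseline and to non-cleaving reference variants; per-tile medians were fit to one- or two-exponential decays to give kobs. kcat and KM came from weighted Michaelis–Menten fits across concentrations.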

glucosamine-6-phosphate [2] = variants of: B1; experiment: KM; higher = weaker cofactor use; RNA array
Summary of the method: as §1

glucosamine-6-phosphate [3] = variants of: B1; experiment: self-cleavage kobs at 40 uM GlcN6P; higher = faster cleavage; RNA array
Summary of the method: as §1

glucosamine-6-phosphate [4] = variants of: B1; experiment: self-cleavage kobs at 640 uM GlcN6P; higher = faster cleavage; RNA array
Summary of the method: as §1

glucosamine-6-phosphate [5] = variants of: B1; experiment: self-cleavage kobs at 2500 uM GlcN6P; higher = faster cleavage; RNA array
Summary of the method: as §1

glucosamine-6-phosphate [6] = variants of: B1; experiment: self-cleavage kobs at 160 uM GlcN6P; higher = faster cleavage; RNA array
Summary of the method: as §1

glucosamine-6-phosphate [7] = variants of: B1; experiment: self-cleavage kobs at 10000 uM GlcN6P; higher = faster cleavage; RNA array
Summary of the method: as §1

Row | Variant | kcat (glucosamine-6-phosphate [1]) [s⁻¹] | KM (glucosamine-6-phosphate [2]) [µM] | self-cleavage kobs at 40 uM GlcN6P (glucosamine-6-phosphate [3]) [s⁻¹] | self-cleavage kobs at 640 uM GlcN6P (glucosamine-6-phosphate [4]) [s⁻¹] | self-cleavage kobs at 2500 uM GlcN6P (glucosamine-6-phosphate [5]) [s⁻¹] | self-cleavage kobs at 160 uM GlcN6P (glucosamine-6-phosphate [6]) [s⁻¹] | self-cleavage kobs at 10000 uM GlcN6P (glucosamine-6-phosphate [7]) [s⁻¹]
1 | C11A G66U | < 1e-05 | 58.7 ± 26 | < 1e-05 | < 1e-05 | < 1e-05 | – | –
2 | C11A G59U | 0.0133 ± 0.0031 | 2310 ± 700 | 0.000273 ± 2.8e-05 | 0.00335 ± 0.00043 | 0.00743 ± 0.0012 | 0.000683 ± 8.7e-05 | 0.0105 ± 0.0013
3 | C11U A14C | 0.000773 ± 0.00026 | – | – | 0.000151 ± 2.1e-05 | 0.000275 ± 5.2e-05 | 8.34e-05 ± 1.7e-05 | 0.000712 ± 8.5e-05
4 | C11A A15G C16A G29U | 0.000222 ± 4.3e-05 | 2210 ± 1100 | – | 6.91e-05 ± 2.4e-05 | 0.000102 ± 2.4e-05 | – | 0.000192 ± 3.5e-05
5 | C11U U65G C68U | 6.35e-05 ± 2.3e-05 | – | – | – | 0.000106 ± 3.6e-05 | – | 5.53e-05 ± 1.2e-05
6 | A12C A15U C16U C70U | 0.000185 ± 1.8e-05 | 514 ± 130 | – | 9.57e-05 ± 2.2e-05 | 0.000148 ± 5e-05 | 5.1e-05 ± 1.8e-05 | 0.000188 ± 4.7e-05
7 | C11U A53U U54C C58A | 1.72e-05 ± 2.3e-06 | – | – | < 1e-05 | – | – | –
8 | C10U G66U | < 1e-05 | – | – | < 1e-05 | – | < 1e-05 | < 1e-05
9 | C10U G66A | 1.5e-05 ± 2.3e-06 | – | – | – | – | – | –
10 | C11A A15C | 7.9e-05 ± 2.8e-05 | – | – | – | 8.45e-05 ± 1.9e-05 | – | 5.67e-05 ± 2.2e-05
11 | C10G G51U C68U C70U | < 1e-05 | – | – | – | – | – | –
12 | A12C U30C C71U | 0.00195 ± 0.00038 | 3540 ± 1200 | 3.06e-05 ± 1.5e-05 | 0.000258 ± 8.1e-05 | 0.000922 ± 0.00025 | – | 0.00141 ± 0.00029
13 | C11A C34G G60U A64G | < 1e-05 | – | < 1e-05 | < 1e-05 | – | – | –
14 | C11G C50G | 0.000265 ± 6.8e-05 | – | 6.35e-05 ± 1.4e-05 | 0.000352 ± 7.5e-05 | 0.000209 ± 5e-05 | 0.00024 ± 4.8e-05 | 0.000187 ± 9.3e-05
15 | C10U A53U | 1.55e-05 ± 3.9e-06 | – | – | – | – | – | –
16 | G9A C71U | 5.71e-05 ± 4.6e-06 | – | – | – | – | – | –
17 | C10U A53U G59C C68G | < 1e-05 | – | < 1e-05 | – | – | – | –
18 | C10G G60C | 0.00245 ± 0.00047 | 2180 ± 610 | 3.56e-05 ± 6.7e-06 | 0.000733 ± 8.9e-05 | 0.00117 ± 0.00023 | 0.000167 ± 2.9e-05 | 0.00198 ± 0.00023
19 | C10G G60U | 4.68e-05 ± 1.2e-05 | – | < 1e-05 | – | – | < 1e-05 | 2.05e-05 ± 1e-05
